Read-outs that look alike come from different tables or passages of the source.
Experiments:
hTSLP-His [1] = molecular target: T1, hTSLP-His (human, UniProt Q969D9 29-159, limits assumed); assay: competition ELISA, 7 nM TSLP-His pre-incubated with antibody; competitor Tezepelumab coated
T1 construct: bought; also called hTSLP (ACROBiosystems TSP-H52Hb); not shown: His tag

hTSLP-His [2] = molecular target: T1, hTSLP-His; assay: competition ELISA: antibody titrated and pre-incubated with 7 nM TSLP-His, then on a plate coated with 33.001 (Tezepelumab), anti-His detection; row head on the sheet reads EC50, unit from the axis
hTSLP-His [3] = molecular target: T1, hTSLP-His; assay: cell-based or functional assay
[4] = molecular target: T2, recombinant cynomolgus monkey IL-13 (cynomolgus monkey, UniProt Q0PW92 21-132); assay: SPR
T2 construct: bought; also called rc-IL-13; cIL-13

human TSLP [5] = molecular target: T3, human TSLP (human, UniProt Q969D9 29-159); assay: cell-based or functional assay
recombinant human IL-13 [6] = molecular target: T4, recombinant human IL-13 (human, UniProt P35225 35-146); assay: cell-based or functional assay
recombinant human IL-13 [7] = molecular target: T4, recombinant human IL-13; assay: SPR
human TSLP [8] = molecular target: T3, human TSLP; assay: SPR
recombinant human IL-13 [9] = molecular target: T4, recombinant human IL-13; assay: cell-based or functional assay; remark: listed apart in the source
[10] = molecular target: T5, cynomolgus monkey (cyno) TSLP (cynomolgus monkey, UniProt A0A7N9CAT7 29-159); assay: SPR
T5 construct: also called cTSLP; cynomolgus TSLP

human TSLP [11] = molecular target: T3, human TSLP; assay: SPR (Biacore T200), antibody captured, hTSLP as analyte 0.231-5.926 nM
[12] = molecular target: T2, recombinant cynomolgus monkey IL-13; assay: SPR; remark: listed apart in the source
[13] = molecular target: T5, cynomolgus monkey (cyno) TSLP; assay: SPR; remark: listed apart in the source
human TSLP [14] = molecular target: T3, human TSLP; assay: SPR; remark: listed apart in the source
recombinant human IL-13 [15] = molecular target: T4, recombinant human IL-13; assay: SPR; remark: listed apart in the source
hTSLP-His [16] = molecular target: T1, hTSLP-His; assay: cell-based or functional assay; remark: listed apart in the source
recombinant human IL-13 [17] = molecular target: T4, recombinant human IL-13; assay: SPR (Biacore T200), antibody captured, hIL-13 as analyte 0.35-5.93 nM
hTSLP-His [18] = molecular target: T1, hTSLP-His; assay: competition ELISA: antibody titrated and pre-incubated with 7 nM TSLP-His, then on a plate coated with 33.001 (Tezepelumab), anti-His detection; row head on the sheet reads EC50, unit from the axis; remark: listed apart in the source
hTSLP-His [19] = molecular target: T1, hTSLP-His; assay: as above; remark: listed apart in the source
hIL-13-His = hIL-13-His (human, UniProt P35225 35-146, limits assumed); assay: cell-based or functional assay
Chain of hIL-13-His (P35225 35-146 limits assumed): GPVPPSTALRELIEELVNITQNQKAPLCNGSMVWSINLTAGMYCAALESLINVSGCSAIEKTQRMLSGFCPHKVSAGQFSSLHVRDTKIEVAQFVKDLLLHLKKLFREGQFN

T2 sequence (Q0PW92 entry or part of it): as the sequence (P35225 35-146 limits assumed) above, with G1S, R10K, M42V, S67N, H83R, L100V counted along it
T4 sequence (P35225 35-146 limits assumed): as the sequence (P35225 35-146 limits assumed) above
T5 sequence (A0A7N9CAT7 entry or part of it): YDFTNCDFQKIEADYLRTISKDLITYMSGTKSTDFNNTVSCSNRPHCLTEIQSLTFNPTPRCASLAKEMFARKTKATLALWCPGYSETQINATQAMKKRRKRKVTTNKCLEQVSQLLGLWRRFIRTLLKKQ

Row | IC50 (hTSLP-His [1]) [nM] | IC50 (hTSLP-His [2]) [nM] | IC50 [pM], STAT5 phosphorylation inhibition in MUTZ5 cells (hTSLP-His [3]) [pM] | IC50 TARC (human TSLP [5]) [nM] | IC50 CD23 (recombinant human IL-13 [6]) [nM] | Kd (recombinant human IL-13 [7]) [nM] | koff (recombinant human IL-13 [7]) [s⁻¹] | kon (recombinant human IL-13 [7]) [M⁻¹ s⁻¹] | Kd (human TSLP [8]) [nM] | koff (human TSLP [8]) [s⁻¹] | kon (human TSLP [8]) [M⁻¹ s⁻¹] | HEK-IL-13 [nM] (IC50, STAT6 reporter) (recombinant human IL-13 [9]) | IC50 (hTSLP-His [18]) [nM] | Binder | further results
1 | 3.94 | 3.39 | 43.9 | 4.17 | 0.0975 | 0.0318 | 0.000547 | 1.72e+07 | 0.012 | 2.38e-05 | 1.98e+06 | 0.0691 |  | BDG38.075 (antibody, V domains shown, IgG1) VH: QMQLVESGGGVVQPGRSLRLSCAASGFAFRTYGMHWVRQAPGKGLEWVAVIWYDGSATHYADSVKGRFTITRDNSKNTLNLQMNSLRAEDTAVYYCVRAPQWYLSAEAFDLWGQGTMVTVSS VL: SYVLTQPPSVSVAPGETATITCGGNLIGAYLVHWYQQKPGQAPVLVIYDDVDRPARIPERFSGSNSGNTATLTISRVEAGDEADYYCQVWDHDTNTMVFGGGTKLTVL | Kd [4]: 0.454 nM; koff [4]: 0.0156 s⁻¹; kon [4]: 3.45e+07 M⁻¹ s⁻¹; Kd [10]: 0.00279 nM; koff [10]: 7.59e-06 s⁻¹; kon [10]: 2.72e+06 M⁻¹ s⁻¹
2 | 3.66 | 3.66 | 46.7 | 2.77 | 0.158 |  |  |  |  |  |  | 0.0241 |  | BDG38.074 (antibody, V domains shown, also called BDG38.74) VH: QMQLVESGGGVVQPGRSLRLSCAASGFAFRTYGMHWVRQAPGKGLEWVAVIWDDGSNTHYADSVKGRFTITRDNSKNTLNLQMNSLRAEDTAVYYCVRAPQWYLTAEAFDLWGQGTMVTVSS VL: SYVLTQPPSVSVAPGQTATITCGGNMIGAYLVHWYQQKPGQAPLLVVYDDVDRPNRIPERFSGSNSGNTATLTISRVEAGDEADYYCQVWDHNTDKMVFGGGTKLTVL | Kd (human TSLP [11]): 0.00334 nM; koff (human TSLP [11]): 5.05e-05 s⁻¹; kon (human TSLP [11]): 1.51e+07 M⁻¹ s⁻¹; Kd [12]: 0.733 nM; koff [12]: 0.00644 s⁻¹; kon [12]: 8.78e+06 M⁻¹ s⁻¹; Kd [13]: 0.00416 nM; koff [13]: 4.6e-05 s⁻¹; kon [13]: 1.11e+07 M⁻¹ s⁻¹; Kd (human TSLP [14]): 0.00334 nM; koff (human TSLP [14]): 5.05e-05 s⁻¹; kon (human TSLP [14]): 1.51e+07 M⁻¹ s⁻¹; Kd (recombinant human IL-13 [15]): 0.0295 nM; koff (recombinant human IL-13 [15]): 0.000249 s⁻¹; kon (recombinant human IL-13 [15]): 8.43e+06 M⁻¹ s⁻¹; IC50, pSTAT5 in MUTZ-5 cell line (hTSLP-His [16]): ~35 pM; Kd (recombinant human IL-13 [17]): 0.0295 nM; koff (recombinant human IL-13 [17]): 0.000249 s⁻¹; kon (recombinant human IL-13 [17]): 8.43e+06 M⁻¹ s⁻¹
3 | 2.7 |  |  | 1.58 | 0.0391 | 0.114 | 0.000956 | 8.41e+06 | 0.0616 | 0.000158 | 2.56e+06 | 0.043 | 2.73 | BDG38.082 (antibody, V domains shown, IgG1) VH: QMQLVESGGGVVQPGRSLRLSCAASGFAFRTYGMHWVRQAPGKGLEWVAVIWDDGSNTHYADSVKGRFTITRDNSKNTLNLQMNSLRAEDTAVYYCVRAPQWYLTAEAFDLWGQGTMVTVSS VL: SYVLTQPPSVSVAPGETATITCGGNMIGGYLVHWYQQKPGQAPVLVIYDDVDRPDRIPERFSGSNSGNTATLTISRVEAGDEADYYCQVWDHDTNQVVFGGGTKLTVL | 
4 | 2.2 |  | 38.7 | 5.93 | 0.0339 | 0.0509 | 0.000872 | 1.71e+07 | 0.0692 | 0.000125 | 1.81e+06 | 0.0483 | 2.21 | BDG38.081 (antibody, V domains shown, IgG1) VH: QMQLVESGGGVVQPGRSLRLSCAASGFAFRTYGMHWVRQAPGKGLEWVAVIWDDGSNTHYADSVKGRFTITRDNSKNTLNLQMNSLRAEDTAVYYCVRAPQWYLTAEAFDLWGQGTMVTVSS VL: SYVLTQPPSVSVAPGQTARITCGGNMIGAYLVHWYQQKPGQAPLLVIYDDVDRPDRIPERFSGSNSGNTATLTISRVEAGDEADYYCQVWDHNTQQMVFGGGTKLTVL | Kd [4]: 0.844 nM; koff [4]: 0.00675 s⁻¹; kon [4]: 8e+06 M⁻¹ s⁻¹; Kd [10]: 0.00487 nM; koff [10]: 4.36e-05 s⁻¹; kon [10]: 8.96e+06 M⁻¹ s⁻¹
5 | 3.27 |  | 34.3 | 0.79 | 0.201 | 0.0716 | 0.00114 | 1.59e+07 | 0.00722 | 1.81e-05 | 2.5e+06 | 0.0592 |  | BDG38.080 (antibody, V domains shown, IgG1) VH: QMQLVESGGGVVQPGRSLRLSCAASGFAFRTYGMHWVRQAPGKGLEWVAVIWYDGSATHYADSVKGRFTITRDNSKNTLNLQMNSLRAEDTAVYYCVRAPQWYLSAEAFDLWGQGTMVTVSS VL: SYVLTQPPSVSVAPGETATITCGGNLIGAYLVHWYQQKPGQAPVLVIYDDSDRPDRIPERFSGSNSGNTATLTISRVEAGDEADYYCQVWDHNTNHMVFGGGTKLTVL | IC50 (hTSLP-His [19]): 3.27 nM
6 | 4.3 |  | 338 | 6.52 | 0.125 | 0.0857 | 0.000203 | 2.37e+06 | 0.000231 | 2.95e-07 | 1.28e+06 | 0.0508 |  | BDG38.078 (antibody, V domains shown, IgG1) VH: QMQLVESGGGVVQPGRSLRLSCAASGFEFRTYGMHWVRQAPGKGLEWLGVIWYDGSNTHYADSVKGRFTITRDNSKNTLNLQMNSLRVEDTAVYYCVRAPQWYLTAEAFDLWGQGTMVTVSS VL: SYILTQPPSVSVAPGETATITCGGNLIGARLVHWYQQKPGQAPVLVIYDDSDRPSRIPERFSGSNIGNTATLTIERVEAGDEADYYCQVWDYYSDHMVFGGGTKLTVL | IC50 (hTSLP-His [19]): 4.3 nM
7 | 8.47 | 8.48 | 304 | 2.47 | 0.0124 | 0.0325 | 0.000539 | 1.66e+07 | 0.166 | 0.000144 | 869000 | 0.0505 |  | BDG38.077 (antibody, V domains shown, IgG1) VH: QMQLVESGGGVVQPGRSLTLSCAASGFAFRTYGMHWVRQAPGKGLEWVGVIWYDGSATHYADSVKGRFTITRDNSKNTLNLQMNSLRAEDTAVYYCVRAPQWYLTAEAFDLWGQGTMVTVSS VL: SYVLTQPPSVSVAPGETATITCGGALIGSRLVHWYQQKPGQAPVLVIYDDSDRPSRIPERFSGSNIGNTATLTISDVEAGDEADYYCQVWDHSSNTYVFGGGTKLTVL | 
8 | 3.33 |  |  | 11.4 | 0.0215 | 0.0565 | 0.000401 | 7.09e+06 | 0.0983 | 0.000241 | 2.45e+06 | 0.0419 | 3.33 | BDG38.083 (antibody, V domains shown, IgG1) VH: QMQLVESGGGVVQPGRSLTLSCAASGFEFRTYGMHWVRQAPGKGLEWVGVIWDDGSNTHYADSVKGRFTITRDNSKNTLNLQMNSLRAEDTAVYYCARAPQWYLTAEAFDLWGQGTMVTVSS VL: SYILTQPPSVSVAPGQTATITCGGNLIGAKLVHWYQQKPGQAPVLVIYDDSDRPSRIPERFSGSNIGNTATLTISDVEEGDEADYYCQVWDYSSDTMVFGGGTKLTVL | 
9 |  |  |  |  |  |  |  |  |  |  |  |  |  | Tralokinumab (antibody, V domains shown) VH: QVQLVQSGAEVKKPGASVKVSCKASGYTFTNYGLSWVRQAPGQGLEWMGWISANNGDTNYGQEFQGRVTMTTDTSTSTAYMELRSLRSDDTAVYYCARDSSSSWARWFFDLWGRGTLVTVSS VL: SYVLTQPPSVSVAPGKTARITCGGNIIGSKLVHWYQQKPGQAPVLVIYDDGDRPSGIPERFSGSNSGNTATLTISRVEAGDEADYYCQVWDTGSDPVVFGGGTKLTVL | IC50, CD23 expression on monocytes (hPBMC, 0.7 nM IL-13) (hIL-13-His): 0.91 nM
10 |  |  |  |  |  |  |  |  |  |  |  |  |  | Lebrikizumab (antibody, V domains shown) VH: QVTLRESGPALVKPTQTLTLTCTVSGFSLSAYSVNWIRQPPGKALEWLAMIWGDGKIVYNSALKSRLTISKDTSKNQVVLTMTNMDPVDTATYYCAGDGYYPYAMDNWGQGSLVTVSS VL: DIVMTQSPDSLSVSLGERATINCRASKSVDSYGNSFMHWYQQKPGQPPKLLIYLASNLESGVPDRFSGSGSGTDFTLTISSLQAEDVAVYYCQQNNEDPRTFGGGTKVEIKR | IC50, CD23 expression on monocytes (hPBMC, 0.7 nM IL-13) (hIL-13-His): 0.38 nM

Source: patent publication US20240059769A1 (BIOLOJIC DESIGN, published 2024)
